One block for each binder: values may come before it.
Experiments:
[1] = biological target: the molecule itself; assay: co-sedimentation; sedimentation (pelletation) assay of single purified PB1 domains by ultracentrifugation; soluble and pellet fractions on SDS-PAGE
[2] = biological target: T1, MBP-tagged wild-type AtNBR1–PB1^1–94 (Arabidopsis thaliana, UniProt Q9SB64 1-94); assay: pull-down; MBP–AtNBR1–PB1 on amylose resin, 4:1 molar excess of AtNBR1–PB1 (mutant); wash 15 mM HEPES pH 7.5, 500 mM NaCl; eluted with 30 mM maltose; SDS-PAGE; conditions: both partners purified
T1 construct: NBR1 autophagy receptor, Arabidopsis thaliana (AtNBR1), residues 1-94 (PB1 domain); Held on amylose resin in the pull-down; also called MBP–AtNBR1–PB1; source: E. coli BL21 (DE3), expressed as described for AtNBR1–PB1, buffer-exchanged; not shown: MBP, N-terminal, kept
T1 sequence (looked up): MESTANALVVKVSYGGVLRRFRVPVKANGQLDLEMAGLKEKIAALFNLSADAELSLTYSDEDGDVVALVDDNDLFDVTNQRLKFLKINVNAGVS

MEKK3^43–127 (MEKK3–PB1) = biological target: T2, MEKK3^43–127 (MEKK3–PB1) (UniProt Q99759 43-127); assay: not stated; binding of NBR1–PB1 to MEKK3 'also measured'; method not given; conditions: both partners purified
T2 construct: MEKK3, residues 43-127 (PB1 domain); The His6 tag was kept for the gold-labelling and co-pelletation experiments; source: E. coli BL21 (DE3), expressed from pETM11, purified; not shown: His6, N-terminal, kept
T2 sequence (looked up): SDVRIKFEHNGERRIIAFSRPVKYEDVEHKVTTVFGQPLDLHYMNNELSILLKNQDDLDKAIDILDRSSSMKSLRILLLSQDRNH

[3] = biological target: the molecule itself; assay: co-sedimentation; co-pelleting assay: p62-PB1^1–122 with His6-tagged PB1 partner, 1 h on ice, 49,000 g, 4 °C, 30 min; pellet and supernatant on SDS-PAGE, Coomassie

- binding result [2]: binds
B1: AtNBR1^1–94 (AtNBR1–PB1) (domain or fragment, Arabidopsis thaliana, UniProt Q9SB64 1-94, looked up)
chain: T1 sequence (looked up)
notes: NBR1 autophagy receptor, Arabidopsis thaliana (AtNBR1), residues 1-94 (PB1 domain); Forms helical filaments; also called AtNBR1–PB1^1–94; NBR1^1–94 from Arabidopsis thaliana; source: E. coli BL21 (DE3), purified (Ni-NTA, 3C protease cleavage, Talon resin); not shown: His6, N-terminal, cleaved; MBP, N-terminal, cleaved
- binding result [1]: binds

B2: TFG1^1–95 (Trk-fused gene 1, TFG1–PB1) (domain or fragment, human, UniProt Q92734 1-95, looked up)
chain: MNGQLDLSGKLIIKAQLGEDIRRIPIHNEDITYDELVLMMQRVFRGKLLSNDEVTIKYKDEDGDLITIFDSSDLSFAIQCSRILKLTLFVNGQPR
notes: TFG1 (Trk-fused gene 1), human, residues 1-95 (PB1 domain); source: E. coli BL21 (DE3), purified (Ni-NTA, 3C protease cleavage, Talon resin); not shown: His6, N-terminal, cleaved; MBP, N-terminal, cleaved
- binding result [1]: binds

B3: p62^1–102 (domain or fragment, human, UniProt Q13501 1-102, looked up)
chain: MASLTVKAYLLGKEDAAREIRRFSFCCSPEPEAEAEAAAGPGPCERLLSRVAALFPALRPGGFQAHYRDEDGDLVAFSSDEELTMAMSYVKDDIFRIYIKEK
notes: p62/SQSTM1, human, residues 1-102 (PB1 domain); also called p62 PB1 domain 1–102; source: expressed and purified
- binding result [1]: binds

- Kd (MEKK3^43–127 (MEKK3–PB1)): 13.3 µM
B4: NBR1^1–85 (human NBR1–PB1) (domain or fragment, UniProt Q14596 1-85, looked up)
chain: MEPQVTLNVTFKNEIQSFLVSDPENTTWADIEAMVKVSFDLNTIQIKYLDEENEEVSINSQGEYEEALKMAVKQGNQLQMQVHEG
notes: NBR1, human, residues 1-85 (PB1 domain); The His6 tag was kept for the gold-labelling and co-pelletation experiments; also called HsNBR1^1–85; wild-type NBR1; source: E. coli BL21 (DE3), expressed from pETM11, purified; not shown: His6, N-terminal, kept

B5: p62-PB1^1–122 (p62/SQSTM1 residues 1–122) (domain or fragment, human, UniProt Q13501 1-122, looked up)
chain: MASLTVKAYLLGKEDAAREIRRFSFCCSPEPEAEAEAAAGPGPCERLLSRVAALFPALRPGGFQAHYRDEDGDLVAFSSDEELTMAMSYVKDDIFRIYIKEKKECRRDHRPPCAQEAPRNMV
notes: Forms helical filaments; also called p62-PB1 filaments; source: E. coli BL21 (DE3), purified (Ni-NTA, 3C protease cleavage, Talon resin); not shown: His6, N-terminal, cleaved; MBP, N-terminal, cleaved
- binding result [3]: binds

Reference: PMC6978347, “Structural basis of p62/SQSTM1 helical filaments and their role in cellular cargo uptake” (Nature Communications, 2020)
